In patent US20110039770A1, “INHIBITORS OF PROTEIN KINASE C ISOFORMS AND USES THEREOF” (PHARMAGAP INC., priority 2005, published 2011):
Where a SMILES comes first, the peptide text is derived from it. [ ]: non-standard residue; d: D form.

Experiments:
PKC-βII = PKC-βII (Homo sapiens, UniProt P05771); test: ELISA-based competitive binding assay with purified PKC isoform; set-up: key to Affinity for PKC isoform βII: —: no detectable affinity; Low to very low affinity at 10X or 20X or both PRE concentrations in at least one cell line in the cell extract assay; Low affinity in purified isoform assay.; Moderate affinity at 10X or 20X or both PRE concentrations in at least one cell line in the cell extract assay.; High affinity at 10X or 20X or both PRE concentrations in at least one cell line in the cell extract assay; High affinity in purified isoform assay; settings: for Affinity for PKC isoform βII: Purified isoform
PKC-βII, sequence (P05771 1-673 isoform P05771-2): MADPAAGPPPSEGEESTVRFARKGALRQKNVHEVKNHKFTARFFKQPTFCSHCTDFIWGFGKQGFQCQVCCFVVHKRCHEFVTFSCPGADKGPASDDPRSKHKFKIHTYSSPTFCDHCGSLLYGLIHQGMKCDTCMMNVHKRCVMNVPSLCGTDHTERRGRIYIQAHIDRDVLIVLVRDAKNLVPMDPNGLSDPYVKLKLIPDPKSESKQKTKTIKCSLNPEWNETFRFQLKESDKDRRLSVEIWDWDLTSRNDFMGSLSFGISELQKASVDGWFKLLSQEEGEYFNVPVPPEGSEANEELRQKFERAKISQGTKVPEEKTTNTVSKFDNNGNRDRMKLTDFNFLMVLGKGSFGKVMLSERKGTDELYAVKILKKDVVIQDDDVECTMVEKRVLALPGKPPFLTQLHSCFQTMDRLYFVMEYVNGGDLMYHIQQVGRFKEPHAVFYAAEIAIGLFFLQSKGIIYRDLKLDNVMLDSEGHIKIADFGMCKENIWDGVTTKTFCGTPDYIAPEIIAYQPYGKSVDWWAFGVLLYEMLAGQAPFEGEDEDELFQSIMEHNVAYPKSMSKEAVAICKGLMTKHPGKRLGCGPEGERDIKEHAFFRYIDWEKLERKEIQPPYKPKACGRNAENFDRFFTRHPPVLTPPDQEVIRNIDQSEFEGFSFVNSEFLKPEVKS
Procedure: (§1) Peptides PRE 1, 2, 3, 4, 5, 6, 7, 8, 9, 10, 11, 12 and 13 (see Table 3) were tested for their ability to interfere with binding of PKC isoform-specific antibodies to their target PKC isoforms using a competitive binding assay and purified PKC isoforms.
(§2) Procedure: Competitive binding was assessed using a 96 well plate ELISA-based assay as described below.
(§3) Greiner 96 well ELISA plates were coated with the appropriate PKC isoform diluted in PBSN (PBS with Calcium/Magnesium+0.05% Sodium azide w/w). 50 μL/well at 250 ng/mL was used. Control wells contained PBSN only. Plates were incubated overnight at 4° C.
(§4) The plates were washed 3 times with 200 μL of dH2O per well, then 100 μL of blocking solution was added per well and the plate incubated for 1 h at 37° C. The washing steps with dH2O were repeated and 50 μL of the appropriate PRE solution (PRE stock solution [20 mM in DMSO] diluted in PBSN) was added and the plate incubated for 1 h at room temperature.
(§5) After incubation, 5 μL of 1.1:400 anti-PKC (isoform specific antibody) was added per well (to provide a final concentration of 1:4000). For PKC-epsilon, 1.1:800 dilution was used and for PKC-zeta a 1.1:100 dilution was used due to high and low binding affinity, respectively. The plates were then incubated 1 h at room temperature, followed by washing with dH2O as described above.
(§6) 50 μL of 1:1000 dilution of Alkaline Phosphatase (AP) conjugated antibody (anti-rabbit for all except zeta, which was anti-goat) was then added and the plate incubated for 1 h at room temperature. Washing with dH2O was then repeated. Finally, 100 μL of pNPP solution in pNPP buffer (2 mM MgCl2, 100 mM Sodium bicarbonate in water, pH 9.8) was added to all wells and incubated for 8 minutes for α, βI, βII ε, and ζ, or for 15-20 mins for δ (until sufficient coloration is observed). The reaction was stopped by addition of Stop solution (2N NaOH) and the absorbance at 405 nm was read on a Galaxy Plate reader.
(§7) Controls were PKC without PRE; blank controls, and controls containing the final concentrations of DMSO used for solubilizing the PREs. The non-specific binding capacity related to DMSO was also measured.
(§8) The antibodies used were as follows: anti-PKC α (Cat. No. SC-208); anti-PKC βI (Cat. No. SC-209); anti-PKC βII (Cat. No. SC-210); anti-PKC δ (Cat. No. SC-213); anti-PKC ε (Cat. No. SC-214); anti-PKC ζ (Cat. No. SC-216-G) (all from Santa Cruz Biotechnology, Inc.). The AP-conjugated antibodies were obtained from Jackson Immuno Research Laboratories (West Grove, Pa.).
(§9) Calculations: The OD values measured at 405 nm represent the free PKC coated per well.
(§10) OD405 PKC alone−Blank OD405 of each sample=OD405 coated isoform
(§11) (OD405 of sample X/OD405 coated isoform)×100=% n that represents the percentage of X binding compared to control.
(§12) 100-% n measures the relative binding capacity of X towards the tested isoform.
(§13) The apparent binding capacity of the DMSO samples was then subtracted from X binding capacity.
(§14) All measurements were made in triplicate and the values in the table represent the averaged calculated binding capacity values after subtraction of the DMSO apparent binding capacity (averaged from 12 values, respectively 10.80, 11.20 and 16.40 corresponding to the concentrations of DMSO used to dilute the […] at 200, 100 and 50 μM respectively). The results allow for quantitative comparison of the binding capacity of each PRE towards an individual isoform within each table, but not among isoforms due to differences in sensitivity of the specific antibodies toward the secondary antibody. This applies particularly to PKC-delta. As noted above, the colour development duration was increased 2-3 times and, as a result, the OD405 measurements may be overestimated for this isoform.

PKC-ε = target: T1, PKC-ε (Homo sapiens, UniProt Q02156); test: as above; set-up: key to Affinity for PKC isoform ε: —: no detectable affinity; Low to very low affinity at 10X or 20X or both PRE concentrations in at least one cell line in the cell extract assay; Low affinity in purified isoform assay.; Moderate affinity at 10X or 20X or both PRE concentrations in at least one cell line in the cell extract assay.; High affinity at 10X or 20X or both PRE concentrations in at least one cell line in the cell extract assay; High affinity in purified isoform assay; settings: for Affinity for PKC isoform ε: Purified isoform; for inhibition at 50 µM / inhibition at 100 µM / calculated binding capacity (100-% n, DMSO apparent binding subtracted): purified PKC-ε; for inhibition at 50 µM / inhibition at 100 µM: read-out: calculated binding capacity (100-% n, DMSO apparent binding subtracted)
T1 sequence (Q02156 1-737): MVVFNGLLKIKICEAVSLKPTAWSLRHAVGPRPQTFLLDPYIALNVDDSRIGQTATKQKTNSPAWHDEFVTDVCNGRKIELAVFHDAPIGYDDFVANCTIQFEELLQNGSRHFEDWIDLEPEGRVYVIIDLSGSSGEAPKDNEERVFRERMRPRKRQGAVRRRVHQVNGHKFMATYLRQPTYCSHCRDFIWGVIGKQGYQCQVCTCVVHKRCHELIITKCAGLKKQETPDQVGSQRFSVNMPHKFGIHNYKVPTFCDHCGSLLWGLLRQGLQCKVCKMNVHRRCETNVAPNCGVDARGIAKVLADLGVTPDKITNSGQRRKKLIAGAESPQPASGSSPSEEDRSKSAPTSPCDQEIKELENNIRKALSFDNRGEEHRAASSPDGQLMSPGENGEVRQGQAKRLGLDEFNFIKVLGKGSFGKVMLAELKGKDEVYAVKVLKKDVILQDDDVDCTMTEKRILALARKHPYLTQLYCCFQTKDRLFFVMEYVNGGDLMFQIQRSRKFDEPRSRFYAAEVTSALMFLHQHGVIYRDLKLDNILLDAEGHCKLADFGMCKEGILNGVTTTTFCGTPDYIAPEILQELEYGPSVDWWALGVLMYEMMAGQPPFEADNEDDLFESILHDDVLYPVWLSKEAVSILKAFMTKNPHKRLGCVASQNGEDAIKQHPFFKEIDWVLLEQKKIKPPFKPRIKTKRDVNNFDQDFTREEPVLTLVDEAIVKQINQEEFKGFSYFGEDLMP
Procedure: as §1, §2, §3, §4, §5, §6, §7, §8, §9, §10, §11, §12, §13, §14

[1] = PRE 50 μM, purified PKC-βII, read-out: calculated binding capacity (100-% n, DMSO apparent binding subtracted)
[2] = PRE 100 μM, purified PKC-βII, read-out: calculated binding capacity (100-% n, DMSO apparent binding subtracted)

Molecule | Affinity for PKC isoform βII (PKC-βII) | Affinity for PKC isoform ε (PKC-ε) | further results
CC[C@H](C)[C@H](NC(=O)[C@H](CO)NC(=O)[C@@H](NC(=O)CNC(=O)[C@@H](NC(=O)[C@H](CC(C)C)NC(=O)[C@H](CC(N)=O)NC(=O)[C@H](CCC(N)=O)NC(=O)[C@H](C)NC(=O)[C@H](CC(=O)O)NC(=O)CNC(=O)CNC(=O)[C@H](CCCCN)NC(=O)[C@@H](NC(=O)[C@H](CCC(=O)O)NC(=O)[C@H](CCC(N)=O)NC(=O)[C@@H](NC(=O)CNC(=O)[C@H](CCCCN)NC(=O)[C@H](C)NC(C)=O)[C@@H](C)CC)C(C)C)[C@@H](C)CC)[C@@H](C)CC)C(N)=O [PRE 3] (Ac-AKGIQEVKGGDAQNLIGISI-NH2) | — | H | inhibition at 50 µM (PKC-βII; [1]): 0%; inhibition at 100 µM (PKC-βII; [2]): 0%
CC[C@H](C)[C@H](NC(=O)[C@H](CO)NC(=O)[C@@H](NC(=O)CNC(=O)[C@@H](NC(=O)[C@H](CC(C)C)NC(=O)[C@H](CC(N)=O)NC(=O)[C@H](CCC(N)=O)NC(=O)[C@H](C)NC(=O)[C@H](CC(=O)O)NC(=O)[C@H](CCCCN)NC(C)=O)[C@@H](C)CC)[C@@H](C)CC)C(N)=O [PRE 4, Ac-KDAQNLIGISI-NH2] (Ac-KDAQNLIGISI-NH2) | L | — | inhibition at 50 µM (PKC-ε; PRE 50 μM): 0%; inhibition at 100 µM (PKC-ε; PRE 100 μM): 0%
CC[C@H](C)[C@H](NC(=O)[C@H](CO)NC(=O)[C@@H](NC(=O)CNC(=O)[C@@H](NC(=O)[C@H](CC(C)C)NC(=O)[C@H](CC(N)=O)NC(=O)[C@H](CCC(N)=O)NC(=O)[C@H](C)NC(=O)[C@H](CC(=O)O)NC(=O)[C@H](CCCCN)NC(=O)CNC(=O)CNC(=O)[C@H](CCCCN)NC(=O)[C@@H](NC(=O)[C@H](CCC(=O)O)NC(=O)[C@H](CCC(N)=O)NC(=O)[C@@H](NC(=O)CNC(=O)[C@H](CCCCN)NC(=O)[C@H](C)NC(C)=O)[C@@H](C)CC)C(C)C)[C@@H](C)CC)[C@@H](C)CC)C(N)=O [PRE 5] (Ac-AKGIQEVKGGKDAQNLIGISI-NH2) | — | — | inhibition at 50 µM (PKC-βII; [1]): 0%; inhibition at 100 µM (PKC-βII; [2]): 0%; inhibition at 200 µM (PKC-βII; PRE 200 μM, purified PKC-βII, read-out: calculated binding capacity (100-% n, DMSO apparent binding subtracted)): 0%; inhibition at 50 µM (PKC-ε; PRE 50 μM): 0%; inhibition at 100 µM (PKC-ε; PRE 100 μM): 0%
Ac-ISIGILNQADK-NH2 [PRE 10] | L | — | calculated binding capacity (100-% n, DMSO apparent binding subtracted) (PKC-ε; PRE 50 μM): 0.91%; calculated binding capacity (100-% n, DMSO apparent binding subtracted) (PKC-ε; PRE 200 μM): 1.75%
Ac-ISIGILQNADK-NH2 (not fully specified; printed as Ac-ISIGILQNADK-NH2) [PRE 7] | — | L | 
Ac-KDANQLIGISI-NH2 [PRE 6] | — | — | calculated binding capacity (100-% n, DMSO apparent binding subtracted) (PKC-ε; PRE 50 μM): 2.61%; calculated binding capacity (100-% n, DMSO apparent binding subtracted) (PKC-ε; PRE 100 μM): 0.46%
Ac-KDAQNLI-NH2 [PRE 12] | — | — | 
Ac-RDAQNLI-NH2 [PRE 13] | — | — | 
Ac-RDAQNLIGISI-NH2 [PRE 11] | — | L | 
Ac-isigilqnadk-NH2 (Ac-[dI][dS][dI]G[dI][dL][dQ][dN][dA][dD][dK]-NH2; SMILES CC[C@@H](C)[C@@H](NC(C)=O)C(=O)N[C@H](CO)C(=O)N[C@@H](C(=O)NCC(=O)N[C@@H](C(=O)N[C@H](CC(C)C)C(=O)N[C@H](CCC(N)=O)C(=O)N[C@H](CC(N)=O)C(=O)N[C@H](C)C(=O)N[C@H](CC(=O)O)C(=O)N[C@H](CCCCN)C(N)=O)[C@H](C)CC)[C@H](C)CC) [PRE 9] | H | L | calculated binding capacity (100-% n, DMSO apparent binding subtracted) (PKC-βII; PRE 50 μM, purified PKC-βII): 8.14%; calculated binding capacity (100-% n, DMSO apparent binding subtracted) (PKC-βII; PRE 100 μM, purified PKC-βII): 0.3%; calculated binding capacity (100-% n, DMSO apparent binding subtracted) (PKC-ε; PRE 50 μM): 16.35%; calculated binding capacity (100-% n, DMSO apparent binding subtracted) (PKC-ε; PRE 100 μM): 8.53%
ILEDKGGDAQNLIGISI [PRE 8] | — | — | 
RRKKGGKDFVVKR [PRE 1] | — | — | calculated binding capacity (100-% n, DMSO apparent binding subtracted) (PKC-ε; PRE 100 μM): 5.47%; calculated binding capacity (100-% n, DMSO apparent binding subtracted) (PKC-ε; PRE 200 μM): 0.83%
